{"source": "paper PMC8514426", "about": "(Nature Communications, 2021)", "molecules": {"B1": {"name": "wild-type YibK–SH2 (expressed as SS–YibK–SH2) (natural protein)", "chain": "MLDIVLYEPEIPQNTGNIIRLCANTGFRLHLIEPLGFTWDDKRLRRSGLDYHEFAEIKRHKTFEAFLESEKPKRLFALTTKGCPAHSQVKFKLGDYLMFGPETRGIPMSILNEMPMEQKIRIPMTANSRSMNLSNSVAVTVYEAWRQLGYKGAVNLPEVK", "notes": "also called WT; not shown: SH2 domain of ABL1 kinase, C-terminal, kept"}}, "key": {"[1]": {"target": "purified YibK protein with R146C (21.6 kDa monomer) (UniProt P44868)", "experiment": "SDS-PAGE without reducing agent and Western blot (disulfide-linked dimer); purified YibK protein, no reducing agent"}, "two-hybrid": {"target": "the molecule itself", "experiment": "two-hybrid"}}}
{"molecule": "purified YibK protein with R146C (21.6 kDa monomer) (from UniProt P44868) (natural protein)", "values": [{"measurement": "stoichiometry N", "setting": "[1]", "value": 2}]}
{"molecule": "B1", "values": [{"measurement": "fold P_cadBA transcriptional activation over cytoplasmic YibK–SH2", "setting": "two-hybrid", "value": 66, "unit": "fold"}]}
